According to patent publication EP3620472A1 (Sanofi, dated 2020):
Where a chain is given by its changes, count along the chain named. Where “and” joins values, the source holds several entries; their conditions need not be identical. Equal values may be shown once.

B1: B109 (antibody)
chain 1: SGQGLDWIGAIYPGNSDTTYNQKFEDKAKLTAVASASTAYMEVSSLTNEDSAVYYCTRGLRRWGAMDYWGQGTSVTVSS
chain 2: DIVMTQSHKFMSTSAGDRVSIPCKASQDVSSAVAWYQQKLGQSPKLLIYSASFRYTGVPDRFTGSGSGTDFTFTISSVQAEDLAVYYCQQHYSSPYTFGGGTNLEIK
B2: APGv2 (antibody, V domains shown)
VH: QVQLVQSGSELKKPGASVKVSCKASGYSFTDYNMNWVRQAPGQGLEWIGIIHPNSGTTTYNQKFKGRAVLSVDQSVSTAYLQISSLKAEDTAVYYCARSKLRFFDYWGQGTLVTVSS
VL: DIQLTQSPSSLSASVGDRVTITCKASQDIYSYLSWFQQKPGKAPKTLIYRANRLIDGVPSRFSGSGSGQDYTFTISSLQPEDIATYYCLQYDEFPFTFGQGTKLEIK
notes: humanized; also called APG variant 2
B3: APGv4 (antibody, V domains shown)
VH: B2 VH with S9A, L11V, V69T, S71T, V76T, L81M, Q82E, I83L, K87R, A88S
VL: B2 VL
notes: humanized; also called APG variant 4
B4: APG (antibody, V domains shown)
VH: QVKLQESGPELVKPGASVKISCKASGYSFTDYNMNWVKQSKGKSLEWIGIIHPNSGTTTYNQKFKGKATLTVDQSSSTAYLQLNSLTSEDSAVYYCARSKLRFFDYWGQGTTVTVSS
VL: DIKLTQSPSSMYASLGERVTITCKASQDIYSYLSWFQQKPGKSPKTLIYRANRLIDGVPSRFSGSGSGQDYSLTISSLEYEHMGIYYCLQYDEFPFTFGSGTKLEIK
notes: mouse antibody; also called mAPG; mouse APG
B5: A44-hv11 (antibody, V domains shown)
VH: QMTLKESGPTLVKPTQTLSLTCSVSGDSMTNGYWNWIRQFPGKALEYMGYITYSGSTYYNPSLKGRITITRDTSKNQYYLTLSSVTTVDTATYYCARWHYGSPYYFDYWGQGTTLTVSS
VL: DIKMTQSPSSLSASVGDRVTITCKASQDINSYLSWLQQKPGKSPKTLIYRAQRSVEGVPSRFSGSGSGQDYSLTISSLQPEDLGIYYCLQYDEFPPTFGGGTKLEIK
notes: constant regions only as pictures; also called A44V11; A44v11
B6: A44-hv13 (antibody, V domains shown)
VH: QMQLQESGPGLVKPSETLSLTCTVSGDSMTNGYWNWIRQPPGKGLEYMGYITYSGSTYYNPSLKSRITISRDTSKNQYSLKLSSVTAADTAVYYCARWHYGSPYYFDYWGQGTLVTVSS
VL: B5 VL
B7: A44-hv12 (antibody, V domains shown)
VH: B5 VH
VL: B5 VL with G84A, I85T
B8: A44-hv14 (antibody, V domains shown)
VH: B6 VH
VL: B5 VL with G84A, I85T
B9: B28 (antibody, mouse IgG2b, V domains shown)
VH: QVQLQQSGAELMKPGASVKISCKATGYTFSISWIEWIKQRPGGLEWIGKILPGSGGANYNEKFKGKATVTADTSSNTVYMQLSSLTSEDSAVYYCARLSTGTRGAFDYWGQGTTLTVSS
VL: DIQLTQSPASLSASVGATVTITCRASENVYSYLAWYQQKQGKSPQLLVYNAKTLAEGVPSRFSGSGSGTQFSLKINYLQPEDFGSYYCQHHYGTPPTFGGGTKVEIKR
B10: E16 (antibody, mouse IgG1, V domains shown)
VH: EVKLVESGGGLVKPGGSLKLSCAASGFTFSNYGMSWVRQTPEKGLGWVASLRTGGNTYYSDSVKGRFTISRDNDRNILYLQMSSLTSEDTAVYYCARGLRHWGYFDVWGAGTTVTVSS
VL: DIVMTQSHKFMSTSVGDRVNITCKASQDVSTAVGWYQQEPGQSPKLLIYSASNRHTGVPDRFTGSGSGTDFTFTISSVQAEDLAVYYCQQHYSSPWTFGGGTKLEIK
B11: A44 (antibody, mouse IgG1, V domains shown)
VH: EMQLQESGPSLVKPSQTLSLTCSVTGDSMTNGYWNWIRKFPGNKLEYMGYITYSGSTYYNPSLKGRISITRNTSKNQYYLQLSSVTTEDTATYYCARWHYGSPYYFDYWGQGTTLTVSS
VL: DIKMTQSPSSMYASLGERVTITCKASQDINSYLSWLQQKPGKSPKTLIYRANRSVDGVPSRFSGSGSGQDYSLTISSLEYEDMGIYYCLQYDEFPPTFGGGTKLEIKR
B12: C45 (antibody, mouse IgG2b, V domains shown)
VH: QVQLQQSGVELVRPGTSVKVSCKASGYAFTNYLIEWIKQRPGQGLEWIGVIHPGSGVTNYNEKFKGKAILTADKSSSTAYMQLSSLTSDDSAVYFCARDYYGSSHGLMDYWGQGTSVTVSS
VL: B4 VL with L4M, Y30N, I55V, H82D, F96R, S100G
B13: A71 (antibody, mouse IgG1, V domains shown)
VH: QVQLQQSGAELMKPGASVKISCKATGFTFSTYWIEWIKQRPGHGLDWIGEILPGSGNTNYNEKFKGKATFTADTSSNTVYMQLSSLTSEDSAVYYCARGGLYYNLDSWGQGTTLTVSS
VL: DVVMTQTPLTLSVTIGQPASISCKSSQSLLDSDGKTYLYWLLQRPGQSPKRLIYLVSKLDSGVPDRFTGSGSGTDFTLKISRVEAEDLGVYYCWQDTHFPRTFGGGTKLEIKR
B14: A105 (antibody, mouse IgG1, V domains shown)
VH: B13 VH with T31I, I37V, H43L, D46E, N57S, V79A, Y80F, N104D, S107Y, T113I
VL: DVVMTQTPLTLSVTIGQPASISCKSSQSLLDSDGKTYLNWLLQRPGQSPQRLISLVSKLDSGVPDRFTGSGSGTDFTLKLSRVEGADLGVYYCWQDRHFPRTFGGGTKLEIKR

The binders below were run against T1, glycosylated human PAI-1 (active form) (human, UniProt P05121 24-402, glycosylated (sites not given)) (assay: cell-based or functional assay).
In the case of B1, the “Chromogenic Assays” value is reported as 0.23 nM.

Target: T1, glycosylated human PAI-1 (active form)
Experiment: cell-based or functional assay
Remark: another data set of the same source
For B2, the “human plasma clot lysis IC50” value was 2.08 nM and the “human plasma clot lysis Imax @ 100 nM” value was 114%.
B3 was tested, and the “human plasma clot lysis IC50” value was 2.82 nM and the “human plasma clot lysis Imax @ 100 nM” value was 116%.
In the case of B4, the “human plasma clot lysis IC50” value is reported as 2.34 nM and the “human plasma clot lysis Imax @ 100 nM” value is reported as 123%.
With B5 the “human plasma clot lysis IC50” value was 1.38 nM and the “human plasma clot lysis Imax @ 100 nM” value was 113%.

The binders below were run against T1, glycosylated human PAI-1 (active form) (assay: Biacore 2000, mAb captured, single-cycle kinetics).
With B2 the kon was 6.58e+06 M⁻¹ s⁻¹.
Work on B3 yielded a kon of 9.48e+06 M⁻¹ s⁻¹.
Work on B4 yielded a kon of 3.82e+06 M⁻¹ s⁻¹.

What follows are binders tested against T2, cynomolgus PAI-1 (cynomolgus (Macaca fascicularis), UniProt P05121 24-402 (human entry)) (assay: cell-based or functional assay).
In the case of B5, the “Cyno PAI-1 neutralization IC50” value is reported as 0.0424 nM and the “Cyno PAI-1 neutralization Y50%” value is reported as 50.8%.
B6 was tested, and the “Cyno PAI-1 neutralization IC50” value was 0.0281 nM and the “Cyno PAI-1 neutralization Y50%” value was 52.8%.
In the case of B7, the “Cyno PAI-1 neutralization IC50” value is reported as 0.0266 nM and the “Cyno PAI-1 neutralization Y50%” value is reported as 53.5%.
For B8, the “Cyno PAI-1 neutralization IC50” value was 0.0287 nM and the “Cyno PAI-1 neutralization Y50%” value was 52.5%.

What follows are binders tested against T3, human PAI-1 (human, UniProt P05121 24-402) (assay: cell-based or functional assay).
In the case of B5, the “uPA-PAI-1 complex ELISA IC50” value is reported as 0.131 nM and the “uPA-PAI-1 complex ELISA Y50%” value is reported as 50.8%.
For B6, the “uPA-PAI-1 complex ELISA IC50” value was 0.166 nM and the “uPA-PAI-1 complex ELISA Y50%” value was 52.8%.
With B7 the “uPA-PAI-1 complex ELISA IC50” value was 0.114 nM and the “uPA-PAI-1 complex ELISA Y50%” value was 53.5%.
With B8 the “uPA-PAI-1 complex ELISA IC50” value was 0.0563 nM and the “uPA-PAI-1 complex ELISA Y50%” value was 52.5%.

Each binder was assayed against T4, endogenous human PAI-1 (human, UniProt P05121 24-402) (assay: cell-based or functional assay).
With B5 the “uPA-PAI-1 complex ELISA IC50” value was 0.0157 nM and the “uPA-PAI-1 complex ELISA Y50%” value was 37.5%.
With B6 the “uPA-PAI-1 complex ELISA IC50” value was 0.0311 nM and the “uPA-PAI-1 complex ELISA Y50%” value was 61.4%.
In the case of B7, the “uPA-PAI-1 complex ELISA IC50” value is reported as 0.00335 nM and the “uPA-PAI-1 complex ELISA Y50%” value is reported as 37.7%.
With B8 the “uPA-PAI-1 complex ELISA IC50” value was 0.0586 nM and the “uPA-PAI-1 complex ELISA Y50%” value was 73.9%.

Target: T4, endogenous human PAI-1
Experiment: cell-based or functional assay
Remark: another data set of the same source
For B5, the “human liver lysate, uPA-PAI-1 ELISA IC50” value was 0.0365 nM and 0.0503 nM and 0.0465 nM and the “human liver lysate, uPA-PAI-1 ELISA IC50, mean” value was 0.0444 nM.

Target: T4, endogenous human PAI-1
Experiment: cell-based or functional assay
Remark: another data set of the same source
B2 was tested, and the “human plasma, uPA-PAI-1 ELISA IC50abs” value was 0.962 nM and the “human plasma, uPA-PAI-1 ELISA Imax” value was 94.5%.
In the case of B3, the “human plasma, uPA-PAI-1 ELISA IC50abs” value is reported as 1.28 nM and the “human plasma, uPA-PAI-1 ELISA Imax” value is reported as 94.4%.
B4 was tested, and the “human plasma, uPA-PAI-1 ELISA IC50abs” value was 1.81 nM and the “human plasma, uPA-PAI-1 ELISA Imax” value was 89.7%.

Target: T1, glycosylated human PAI-1 (active form)
Experiment: cell-based or functional assay
Remark: another data set of the same source
With B5 the “human plasma clot lysis IC50” value was 2 nM.

Each binder was assayed against T2, cynomolgus PAI-1 (assay: value used to set up the HDX MS samples).
B2 gave a Kd of under 0.05 nM.
Work on B5 yielded a Kd of under 0.05 nM.

Each binder was assayed against T3, human PAI-1 (assay: Biacore supernatant screen, graded off-rate).
With B1 the koff was at most 0.0001 s⁻¹.

Target: T1, glycosylated human PAI-1 (active form)
Experiment: cell-based or functional assay
Remark: another data set of the same source
For B9, the “plasmin generation, IC50abs” value was 7.28 nM and the “plasmin generation, Imax” value was 90%.
In the case of B10, the “plasmin generation, IC50abs” value is reported as 4.74 nM and the “plasmin generation, Imax” value is reported as 95%.
With B11 the “plasmin generation, IC50abs” value was 3.32 nM and the “plasmin generation, Imax” value was 97%.
In the case of B12, the “plasmin generation, IC50abs” value is reported as 6.5 nM and the “plasmin generation, Imax” value is reported as 97%.
For B13, the “plasmin generation, IC50abs” value was 8.61 nM and the “plasmin generation, Imax” value was 90%.
In the case of B14, the “plasmin generation, IC50abs” value is reported as 27 nM and the “plasmin generation, Imax” value is reported as 88%.
With B1 the “plasmin generation, IC50abs” value was 6.11 nM and the “plasmin generation, Imax” value was 94%.
